In paper PMC6565675, “Cryo-electron microscopy structure of an archaeal ribonuclease P holoenzyme” (Nature Communications, 2019):

Legend:
[1] = target: T1, Methanocaldococcus jannaschii RNase P protein subunit Rpp30 (Methanocaldococcus jannaschii, UniProt Q58539 1-232); test: cryo-EM structure; MjaRNase P holoenzyme reconstituted in vitro from RPR and the purified protein components, purified by SEC; alone (4.6 Å) and with E. coli tRNA^Tyr (4.3 Å); buffer exchanged on the grid to 40 mM Hepes, pH 7.5, 200 mM NaCl; C2 symmetry applied; conditions: both partners purified
T1 construct: Rpp30, protein subunit of RNase P of Methanocaldococcus jannaschii; full-length gene cloned; Purified as the (Pop5-Rpp30)2 heterotetramer; two copies in the dimeric holoenzyme; also called MjaRpp30; source: E. coli BL21 (DE3), co-expressed with MjaPop5 from pETDuet, purified (Ni-NTA, heating at 65 °C, ion-exchange, SEC)
T1 sequence (looked up): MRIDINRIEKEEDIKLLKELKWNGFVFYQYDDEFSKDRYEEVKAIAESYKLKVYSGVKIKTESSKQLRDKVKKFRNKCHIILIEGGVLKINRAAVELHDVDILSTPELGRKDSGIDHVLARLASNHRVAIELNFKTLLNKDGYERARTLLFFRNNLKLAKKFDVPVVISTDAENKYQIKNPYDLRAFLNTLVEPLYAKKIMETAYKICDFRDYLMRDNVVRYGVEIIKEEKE

[2] = target: T2, Methanocaldococcus jannaschii RNase P protein subunit Rpp21 (Methanocaldococcus jannaschii, UniProt Q58372 1-128); test: as above; conditions: both partners purified
T2 construct: Rpp21, protein subunit of RNase P of Methanocaldococcus jannaschii; also called MjaRpp21; source: E. coli, expressed as the MjaRpp29-MjaRpp21 heterodimer, purified by the same procedure as Pop5-Rpp30
T2 sequence: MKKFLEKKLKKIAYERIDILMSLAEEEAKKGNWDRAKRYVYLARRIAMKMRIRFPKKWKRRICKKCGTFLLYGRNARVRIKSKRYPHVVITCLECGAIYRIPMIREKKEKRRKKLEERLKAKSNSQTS

B1: Methanocaldococcus jannaschii RNase P protein subunit Rpp29 (natural protein)
chain: MITPHNILRHELIGLKVEIVEAKNKAMIGIKGKVVDETRNTLVIEKEDGREVVIPKDIAVFLFQLKGCKVKVDGRLLIGRPEERLKKKIKILYPY
notes: Rpp29, protein subunit of RNase P of Methanocaldococcus jannaschii; also called MjaRpp29; source: E. coli, expressed as the MjaRpp29-MjaRpp21 heterodimer, purified by the same procedure as Pop5-Rpp30
B1: binds [1]; binds [2].
